In the nanobody polyreactivity screen of Harvey et al. (2022):

Assay: yeast display, Sf9 membrane polyspecificity reagent, FACS + sequencing; frameworks hold sequencing errors
Method in brief: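 Genes from sorted yeast were amplified by colony PCR, read by MiSeq 2 × 250 sequencing and filtered on CDR length. These cells carried a synthetic nanobody library in Saccharomyces cerevisiae BJ5465 and were sorted by FACS into low and high (top ~1%) gates on anti-HA and streptavidin fluorescence. Polyreactivity is labelled according to the gate of origin.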

| Sequence | polyreactivity (PSR sort gate) |
| --- | --- |
| QVQLVESGGGLVQAGGSLRLSCAASGFTFVRNTMGWYRQAPGKERELVAAISRSGGSTYYADSVKGRFTISRDNAKNTVYLQMNSLKPEDTAVYYCNAYRYVHYDWGQGTQVTVSS | high polyreactivity |
| QVQLVESGGGIVQAGGSLRLSSAASGFTFYKYVMGWYRQSPGKERELVAAISYSSGSTYYADSVKGRFTISRDNAKNTVYLKMNSLKPDDTAVYYCAADSTYYGYAYYYWGQGSQVTVSS | high polyreactivity |
| QVQLVESGGGLVQAGGSLRLSCAAYGSIFCIFAMGWYRQAPGKEWELVAAISSDGSTKYADSVKGRFTISRDNAKNTVYFQMNSLKPEDTAVYYCAKLKYVRIGGPKQSMALDYWGQGTQVTVSS | low polyreactivity |
| QVQLVESGGGLVQAGGSLRLSCAASGRIFSRNTMGWYRQAPGKERELVAAISWRGGSTYYADSVKGRFTISRDNAKNTVYLQMNSLKPEDTAVFYCAAVVRSPAYDYWGQGTQVSVSS | high polyreactivity |
| QVQLVESGAGIVQAGGSLRLSCAASGRTFLDYTMGWYRQAPGKERELVAAIRTSAGSTYYADSVKGRFTISRDNAKKTVYLQLNSLKPEDTAVYYCAAVYYVHYYYSYDYWGQGTQVTVSS | low polyreactivity |
| QVQLVESVGGLVQAGGSLRLSCAASGSTFYSYSMGWYRQEPGKERELVAAISWNGGSTYYADSVKGRFTISRDNAKNTVYFQMNSLKPEVTAVYYCAARGGYPYWRYYRFYKMDYWGQGTQVTVSS | low polyreactivity |
| EVQLVESGVGLVQAGGSLRLSCAASASIFLSYAMGCYRQAPGKVRELVDAISRRGGSTYYADSVKGRFTISRDFAKNTVYLQMNSLKPEDTAVYYCAADLTGPYDYWGQGTQVTVSS | high polyreactivity |
| QVQLVESGGGLVQAGGSLRLSCAASGSTFYFNAMGGYRQSPGKERELVAVIDGSGGFTYYADSVKGRFTISRDNAKNTVYLQMNSLKQEVTAVYDCNADLVYNTFLYSGGDEYDYWGQGTQVTVSS | high polyreactivity |
| QVQLVESGGGLVQAGGSLRLSCAASGFISRKNAMGWYRQAPGKERELVAAISKSGGRTYYADSVKGRFTISRDNAKNTVYLQMNSLKPEDTAVYYCNRVPRDSWPYAWYDYWGQGTQVTVSS | high polyreactivity |
| QVQLVESGGGLVQAGGSLLLSCAASVFIYRWYAMGWYRPAPGKERELVAGISASGGSTYYADSVKGRFTISRDNAKNTVYLQMNSLKPEDTAVYYCAAYRRNSRWELDYWGQGTQVTVSS | high polyreactivity |
| QVQLVESGGGLVQAGGSLRLSCAASGFTFQYYDMGWYRQAPGKERELVAAISWSGGSTYYADSVKGRFTISRDNAKNTVYFQMNSLKPEDTAVYYCAAGYTRSRHYTPYDYWGQGTQVTVSS | high polyreactivity |
| QVQLVESGGGLVQAGGSLRLSCAASGRIFTFYARGLDRQAPGKEREMVAAISSGGSTYYADSVKGRFTISRDNAKNTVYLQMNSLKPEDTAVYYCATQGARYYHTYGYWGQGTLVTVSS | low polyreactivity |
| QVQLVESGGGLVQAGGCLRLSCAASGRILYYYAMGWYRQAPGKERELVAAINSSGGSTYYADSVKGRFTISRDNAKNTVYLQMNSLKPEDTAVFYCAALRGNVLWYPPSYFRYDYWGQGTQVTVSS | high polyreactivity |
| QVQLVESGRGLVQAGGSLRLSCAASGIILGRYAKGWYRQAPGKERELVAVITGDGSTTYADSVKGRFTISRDNAKNTVYLQMNSLKPEDTAVYYCNAAVEGSLNGYEYWGQGTQVTVSS | low polyreactivity |
| QVQLVESGGGLVQAGGSLRLSCAASGSTFSPYALGWYRQAPGKERELVAGITSSGGDTYYADSVKGRFTISRDNAKNTVYLQMNSLKPEDTAVYYCAADWWVLGQLWFDYWGQGTQVTVSS | low polyreactivity |
| QVQLVESGGGLVQAGGSLRLSCAAYGRTFFWNAMGLYRKAPGTETELVAAITWSGGSTYYADSVKGRFTISRDNAKITVYLQMNSLKPEDTAVYYCASVVSDYVWRYEYWGQGTQVTVSS | low polyreactivity |
| QVQLVESGGGLVQAGGSLRLSCAASGRILHRNAMGWYRQAPGKERELVSAIRSRGGGTYYADSVKGRFTISRDNAKNTVYLQMKSLKPEDTAVYYCNTDRSTRTVGPGLYGYWGQGTQVTVSS | low polyreactivity |
| QVQLVESGGGLVQAGGSLRLRCAATGRTFGWYAMGWYRQAPGKEREFVATITRSGGRTYYADSVKGRFTISRDNAKNTVYFQMNSLKPEDTAVYYCAADTNRYRYSYDYWGQGTQVTVSS | high polyreactivity |
| QVQLVESGGGLVQAGGSLRLSCAASGFIFGYYAMAWYRQAPGKERELVAAITSGTGTNYADSVKGRFTISRDNAKNTVYLQMNSLKPEDTAVYYCAAYYTWLSEFGYWGQGTQVTVSS | low polyreactivity |
| QVQLVESGGGLVQAGGSLRLSCAASGRIFGVNAMGRYRQAPGKERELVAAIDWSDGSTYYADSVKGRFTISRDNAKNTVYLQMNSLKPEDTAVYYCAALPSFLAAQYGDDYWGQGTQVTVSS | low polyreactivity |

| Sequence | polyreactivity (PSR sort gate) |
| --- | --- |
| QVQLVESGGGLVQAGGSLRLSCAASGRIFYYNPMGWYRQAPGKERELVAAITKSGGRTYYADSVKGRFTISRDNSKNTVYLQMYSLKPEDTAVYYCAALSRAGEYDYWGQGTQVTVSS | high polyreactivity |
| QVQLVESGGGLVQAGGSLRLSCAASGRIFGEYAMGWYRQAPGKERELVAAITSSTGSTYYADSVKGRFTISRDNAKNTVYLQMNSLKPEDTAVYYCAAADLKYASYWYDYWGQGTQVTVSS | low polyreactivity |
| QVQLVESGGGLVQAGGSLRLSCAASGRTFGAYAMGWYRQAPGKERELVAAISSSGGSTYYADSLKGRFTISRDNAKNTVYLQMNSLKPEDTAVYYCAKGWHRGVGFGYWGQGTQVTVSS | high polyreactivity |
| QVQLVESGGGLVQAGGSLRLSCAASGFTFGYYAKGWYRQAPGKERELVAGISRGGRTNYADSVKGRFTISRDNAKNTVYLQMNSLKPEDTAVYYCAKDTYYPSSRYNRYYYWGQGSQVTVSS | high polyreactivity |
| QVQLVESGGGLVQAGGSLRLSSAASGSTFSLYTMGWYRQEPGKERELVAAITWTGGSTYYADSVKGRFTISRDNAKNTVYLQMNSLKPEDTAVYYCAAVSRLTGSRESQLIRSRMYYWGQGTQVTVSS | high polyreactivity |
| QVQLVESGGGLVQAGGSLRLSCAASGSTFVIYGMGWYRQAPGKERELVADITWIGGSTYYADSVKGRFTISRDNAKNTVYLQMNSLKPEDTAVYYCAADAAYLYLYNWYDTEDDYWGEGTQVTVSS | low polyreactivity |
| QVQLVESGGGLVQAGGSLRLSCAASGRIFSSNAMGWYRQAPGKEWELVAAITRGGSTNYADSVKGRFTISRDNAKNTDYLQMNSLKPEDTAVYYCNVDYYVFNHQGHLNYDYWGQGTQVTVSS | high polyreactivity |
| QVQLVESGGGLVPAGGSLRLSCAASGRTFFPYAMAWYRQAPGKEREFVAAITWSGGSTTYADSVKGRFTISRDNAKNTVYLQMNSLKPEDTAVYYCNAGRRRSYSYDYWGQGTQVTVSS | low polyreactivity |
| QVQLVESGGGLVQAGGSLRLSCAASGRIFKYYAMGWYRQAPGKERELVAAISRSGGSTYYADSVKGRFSISRDNAKNTVYLQMNSLKPEDTAVYYCAAGYKQATYDRIRTAYGYWGQGTQVTVSS | high polyreactivity |
| QVQLVESGGGLVQAGGSLRLSCAASGSIFPYNAMGWYRQAPGKERELVATISSGGSTNYADSVKGRFTISRDNAKNTVYLQMKSLKPADTAVYYCAADVIVFFSAPNYWGDIEYGYWGQGTQVTVSS | low polyreactivity |
| QVQLVESGGGLVQAGGSLRLTCAASGRTFPSYTMGWYRQAPGKERELVAAITWSGGSTYADSVKGRFSISRDNAKNTVYLQMKSLKPEDSAVYYCNAPIIAYDDGGSLVRYGRGDYWGQGTQVTVSS | low polyreactivity |
| QVQLVESGGGLVQAGGSLRLSCADSGSTFDYPMGWYRQAPGKERELVASITFSTGSTYYADSVKGRFTISRDNAKNTVYLQMNSLKPEDTAVYYCATGVDTYSLTVEHDSWVQGTQVTVSS | low polyreactivity |
| QVQLVESGGGLVQAGGSLRLSCAASGGTFWLYTMGWYRQAPGTERELVAAITKSGGSTYYADSVKGRFTISRDNAMNTVYLQMNSLKPEDTAVYYCAARYSVYRDGYYWGQGTQVTVSS | high polyreactivity |
| QVQLVESCGGLVQAGGSLRISCAASGLTIRYYAMGWYRHAPWKERELVAAISWSGGSTYYADSVKGRFTISRDNAKNTVYLLMNILKPEDTAVYYCNTVGRSSSLSVFLIGYGYWGQGTQVNVSS | high polyreactivity |
| QGQLVESGGGLVQAGGSLRVSCAASGYTFDSYAMGLYRQAPGKERELFAAITNGGSTYYADSVKGRFTISRDNAKKTVYLQLNSLKPEDTAVYYCATDDDQLDYLYDYWGPGTQVTVSS | low polyreactivity |
| QVHLVESGGGLVQAGGSLRLSCPASGRIFDWYAMGCYRQAPGKEREFVAVIDSSGGTYYADSVKGRFTISRDNAKNTVYLQMNSLKPEDTAVYYCAAEYGWWSFPEYDYWGQGTQVTVSS | low polyreactivity |
| QVQLVESGGGLVQAGGSLRLSCAASGLIFGFYAMGWYRQAPGKERELVAAINSGGITYYADSVKGRFTISRDNAKNTVYFQMNSLKPEDTAVYYCNKDSHISTAYDYWGQGTQVTVSS | low polyreactivity |
| QVQLVESGGGLVQAGGSLRLSCAASGFTFDYYTMGWYRQAPGKERELVAAITSSAGSTDYADSVKGRFTISRDYAKNTVYLQMNSLKPEDTAVYYCNADFLYGTYDYWGQGTQVTVSS | low polyreactivity |
| QVQLVESGGGLVQAGGSLRLSCPAYGSIFEGHGMGWYRQAPGKEREMVAAITFRSGSTYYADSVKWRFTISRDNAKNTVYLQINSLKPDDTAVYYCAADEYYQVSAYDYWGQGTQVTVSS | low polyreactivity |
| QVQLVESGGGLGQAGGRLRLSCAASGSIFRRNAMGWYRQAPGKERELVAGISGGGSTYYADSVKGRFTISRDNAKNTVYLQMYSLKPEDTAVYYCATDKHYRWAGFDYWGQGTQVTVSS | low polyreactivity |
